From publication PMC7785629 come the findings set out here.

Substrate in the series “purified protein”: Nc1ncnc2c1ncn2[C@@H]1O[C@H](COP(=O)(O)OP(=O)(O)OP(=O)(O)O)[C@@H](O)[C@H]1O
Put plainly: purified protein. Format: biochemical, Homo sapiens. The conditions noted are these: Mg2+ nucleotide binding domain.

Substrate in series [1]: Nc1ncnc2c1ncn2[C@@H]1O[C@H](COP(=O)(O)OP(=O)(O)OP(=O)(O)O)[C@@H](O)[C@H]1O
Briefly: Michaelis-Menten ATPase kinetics. Format: biochemical, Homo sapiens. The conditions noted are these: Mg2+ nucleotide binding domain.

For orientation: Km means the concentration of substrate that gives half-maximal velocity. One may read the Vmax as the top rate of the reaction or transport when substrate is in excess.

B1: ABCB7 (Homo sapiens) (protein)
chain: HSAILIRPLVSVSGSGPQWRPHQLGALGTARAYQIPESLKSITWQRLGKGNSGQFLDAAKALQVWPLIEKRTCWHGHAGGGLHTDPKEGLKDVDTRKIIKAMLSYVWPKDRPDLRARVAISLGFLGGAKAMNIVVPFMFKYAVDSLNQMSGNMLNLSDAPNTVATMATAVLIGYGVSRAGAAFFNEVRNAVFGKVAQNSIRRIAKNVFLHLHNLDLGFHLSRQTGALSKAIDRGTRGISFVLSALVFNLLPIMFEVMLVSGVLYYKCGAQFALVTLGTLGTYTAFTVAVTRWRTRFRIEMNKADNDAGNAAIDSLLNYETVKYFNNERYEAQRYDGFLKTYETASLKSTSTLAMLNFGQSAIFSVGLTAIMVLASQGIVAGTLTVGDLVMVNGLLFQLSLPLNFLGTVYRETRQALIDMNTLFTLLKVDTQIKDKVMASPLQITPQTATVAFDNVHFEYIEGQKVLSGISFEVPAGKKVAIVGGSGSGKSTIVRLLFRFYEPQKGSIYLAGQNIQDVSLESLRRAVGVVPQDAVLFHNTIYYNLLYGNISASPEEVYAVAKLAGLHDAILRMPHGYDTQVGERGLKLSGGEKQRVAIARAILKDPPVILYDEATSSLDSITEETILGAMKDVVKHRTSIFIAHRLSTVVDADEIIVLDQGKVAERGTHHGLLANPHSIYSEMWHTQSSRVQNHDNPKWEAKKENISKEEERKKLQEEIVNSVKGCGNCSC
As for B1, in the series “purified protein”, the Michaelis-Menten constant (Km) was 5300 ± 1000 µM and the Vmax was 0.58 µM/min.

B2: ABCB7 (Homo sapiens; E433K) (protein)
chain: HSAILIRPLVSVSGSGPQWRPHQLGALGTARAYQIPESLKSITWQRLGKGNSGQFLDAAKALQVWPLIEKRTCWHGHAGGGLHTDPKEGLKDVDTRKIIKAMLSYVWPKDRPDLRARVAISLGFLGGAKAMNIVVPFMFKYAVDSLNQMSGNMLNLSDAPNTVATMATAVLIGYGVSRAGAAFFNEVRNAVFGKVAQNSIRRIAKNVFLHLHNLDLGFHLSRQTGALSKAIDRGTRGISFVLSALVFNLLPIMFEVMLVSGVLYYKCGAQFALVTLGTLGTYTAFTVAVTRWRTRFRIEMNKADNDAGNAAIDSLLNYETVKYFNNERYEAQRYDGFLKTYETASLKSTSTLAMLNFGQSAIFSVGLTAIMVLASQGIVAGTLTVGDLVMVNGLLFQLSLPLNFLGTVYRKTRQALIDMNTLFTLLKVDTQIKDKVMASPLQITPQTATVAFDNVHFEYIEGQKVLSGISFEVPAGKKVAIVGGSGSGKSTIVRLLFRFYEPQKGSIYLAGQNIQDVSLESLRRAVGVVPQDAVLFHNTIYYNLLYGNISASPEEVYAVAKLAGLHDAILRMPHGYDTQVGERGLKLSGGEKQRVAIARAILKDPPVILYDEATSSLDSITEETILGAMKDVVKHRTSIFIAHRLSTVVDADEIIVLDQGKVAERGTHHGLLANPHSIYSEMWHTQSSRVQNHDNPKWEAKKENISKEEERKKLQEEIVNSVKGCGNCSC
Take B2: in series [1], the Km turned out to be 490 ± 110 µM and the maximal velocity (Vmax) was 0.37 µM/min.

B3: ABCB7 (Homo sapiens; E433D) (protein)
chain: HSAILIRPLVSVSGSGPQWRPHQLGALGTARAYQIPESLKSITWQRLGKGNSGQFLDAAKALQVWPLIEKRTCWHGHAGGGLHTDPKEGLKDVDTRKIIKAMLSYVWPKDRPDLRARVAISLGFLGGAKAMNIVVPFMFKYAVDSLNQMSGNMLNLSDAPNTVATMATAVLIGYGVSRAGAAFFNEVRNAVFGKVAQNSIRRIAKNVFLHLHNLDLGFHLSRQTGALSKAIDRGTRGISFVLSALVFNLLPIMFEVMLVSGVLYYKCGAQFALVTLGTLGTYTAFTVAVTRWRTRFRIEMNKADNDAGNAAIDSLLNYETVKYFNNERYEAQRYDGFLKTYETASLKSTSTLAMLNFGQSAIFSVGLTAIMVLASQGIVAGTLTVGDLVMVNGLLFQLSLPLNFLGTVYRDTRQALIDMNTLFTLLKVDTQIKDKVMASPLQITPQTATVAFDNVHFEYIEGQKVLSGISFEVPAGKKVAIVGGSGSGKSTIVRLLFRFYEPQKGSIYLAGQNIQDVSLESLRRAVGVVPQDAVLFHNTIYYNLLYGNISASPEEVYAVAKLAGLHDAILRMPHGYDTQVGERGLKLSGGEKQRVAIARAILKDPPVILYDEATSSLDSITEETILGAMKDVVKHRTSIFIAHRLSTVVDADEIIVLDQGKVAERGTHHGLLANPHSIYSEMWHTQSSRVQNHDNPKWEAKKENISKEEERKKLQEEIVNSVKGCGNCSC
Regarding B3, in series [1], the Km turned out to be 850 ± 280 µM and the Vmax was 0.35 µM/min.

B4: ABCB7 (Homo sapiens; E433Q) (protein)
chain: HSAILIRPLVSVSGSGPQWRPHQLGALGTARAYQIPESLKSITWQRLGKGNSGQFLDAAKALQVWPLIEKRTCWHGHAGGGLHTDPKEGLKDVDTRKIIKAMLSYVWPKDRPDLRARVAISLGFLGGAKAMNIVVPFMFKYAVDSLNQMSGNMLNLSDAPNTVATMATAVLIGYGVSRAGAAFFNEVRNAVFGKVAQNSIRRIAKNVFLHLHNLDLGFHLSRQTGALSKAIDRGTRGISFVLSALVFNLLPIMFEVMLVSGVLYYKCGAQFALVTLGTLGTYTAFTVAVTRWRTRFRIEMNKADNDAGNAAIDSLLNYETVKYFNNERYEAQRYDGFLKTYETASLKSTSTLAMLNFGQSAIFSVGLTAIMVLASQGIVAGTLTVGDLVMVNGLLFQLSLPLNFLGTVYRQTRQALIDMNTLFTLLKVDTQIKDKVMASPLQITPQTATVAFDNVHFEYIEGQKVLSGISFEVPAGKKVAIVGGSGSGKSTIVRLLFRFYEPQKGSIYLAGQNIQDVSLESLRRAVGVVPQDAVLFHNTIYYNLLYGNISASPEEVYAVAKLAGLHDAILRMPHGYDTQVGERGLKLSGGEKQRVAIARAILKDPPVILYDEATSSLDSITEETILGAMKDVVKHRTSIFIAHRLSTVVDADEIIVLDQGKVAERGTHHGLLANPHSIYSEMWHTQSSRVQNHDNPKWEAKKENISKEEERKKLQEEIVNSVKGCGNCSC
In the case of B4, in series [1], the Michaelis-Menten constant (Km) is 710 ± 300 µM and the Vmax was 0.28 µM/min.
